Source: the supplement of paper PMC7877785
± gives the uncertainty stated by the source.

Test: self-splicing fitness, log relative to wild type (ln ratio); higher = more splicing; Tetrahymena group I intron in knt gene, E. coli kanamycin selection, DiMSum; sequences stand for … in CUCUCU…GGAGGGAAAAGUUAUCAGGCAUGCACCUGGUAGCUAGUCUUUAAACCAAUAGAUUGCAUCGGUUUAAAAGGCAAGACCGUCAAAUUGCGGGAAAGGGGUCAACAGCCGUUCAGUACCAAGUCUCAGGGGAAACUUUGAGAUGGCCUUGCAAAGGGUAUGGUAAUAAGCUGACGGACAUGGUCCUAACCACGCAGCCAAGUCCUAAGUCAACAGAUCUUCUGUUGAUAUGGAUGCAGUUCACAGACUAAAUGUCGGUCGGGGAAGAUGUAUUCUUCUCAUAAGAUAUAGUCGGACCUCUCCUUAAUGGGAGCUAGCGGAUGAAGUGAUGCAACACUGGAGCCGCUGGGAACUAAUUUGUAUGCGAAAGUAUAUUGAUUAGUUUUGGAGUACUCGUGGUCG
How it was run: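 Six replicate transformations of E. coli BL21(DE3) with a pET-22b(+) library were grown overnight at 37°C or 30°C. The library randomised all eight P1ex-region intron nucleotides, the intron lying in the knt kanamycin-resistance gene, and plates were LB agar with or without 25 μg/mL kanamycin plus 100 μg/mL carbenicillin, 50 μM IPTG and 0.2% rhamnose. Pooled colonies were amplicon-sequenced on an Illumina HiSeq 2500, and fitness is the DiMSum error-weighted combination of wild-type-normalised replicate fold changes, kanamycin versus none.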

| Sequence | self-splicing fitness (ln) (30 °C) | self-splicing fitness (ln) (37 °C) |
| --- | --- | --- |
| AGCAAGCAAUAUUACGGGUA | -1.32 ± 0.081 | -0.594 ± 0.09 |
| CGGUAGCAAUAUUACGAUAC | -2.53 ± 0.22 | – |
| AACGAGCAAUAUUACGGUGU | -3.36 ± 0.17 | -1.81 ± 0.18 |
| GAAUAGCAAUAUUACGCUAG | -2.22 ± 0.16 | -0.535 ± 0.14 |
| CUGGAGCAAUAUUACGGCUG | -1.48 ± 0.15 | -0.00856 ± 0.18 |
| AGAUAGCAAUAUUACGCUCA | -0.765 ± 0.087 | -0.082 ± 0.11 |
| GGCGAGCAAUAUUACGCAGA | -3.15 ± 0.4 | -2.31 ± 0.23 |
| UCUAAGCAAUAUUACGGAUU | – | -2.31 ± 0.23 |
| UUCUAGCAAUAUUACGCCUA | -1.94 ± 0.29 | -0.0729 ± 0.19 |
| CGAUAGCAAUAUUACGUUUC | – | -2.12 ± 0.15 |
| AAGAAGCAAUAUUACGCCCA | -0.613 ± 0.21 | -1.85 ± 0.44 |
| UCUAAGCAAUAUUACGCACG | -1.11 ± 0.19 | -1.8 ± 0.23 |
| UCUCAGCAAUAUUACGACUG | -2.79 ± 0.17 | -3.11 ± 0.28 |
| GUUUAGCAAUAUUACGACCC | -0.68 ± 0.19 | -0.133 ± 0.24 |
| UUACAGCAAUAUUACGGCGG | -0.579 ± 0.087 | 0.426 ± 0.13 |
| AAGCAGCAAUAUUACGGAUA | -2.22 ± 0.2 | -1.72 ± 0.15 |
| CGGCAGCAAUAUUACGUUUC | -3.29 ± 0.17 | -2.36 ± 0.19 |
| AAGCAGCAAUAUUACGCUGU | – | -2.7 ± 0.23 |
| AACCAGCAAUAUUACGACAA | -1.14 ± 0.12 | -0.155 ± 0.12 |
| GUUCAGCAAUAUUACGAAAA | -0.216 ± 0.13 | 0.45 ± 0.15 |
| GGGGAGCAAUAUUACGGUUA | -1.34 ± 0.26 | -2.75 ± 0.31 |
| GAGAAGCAAUAUUACGACGC | -0.75 ± 0.15 | -0.292 ± 0.17 |
| AUAGAGCAAUAUUACGCUAA | -1.33 ± 0.13 | -0.315 ± 0.18 |
| AACUAGCAAUAUUACGGUUU | -3.29 ± 0.12 | -2.62 ± 0.17 |
| AGGCAGCAAUAUUACGCACA | -0.332 ± 0.092 | 0.275 ± 0.11 |

| Sequence | self-splicing fitness (ln) (30 °C) | self-splicing fitness (ln) (37 °C) |
| --- | --- | --- |
| UUAUAGCAAUAUUACGUUAU | – | -2.31 ± 0.34 |
| AUCUAGCAAUAUUACGUACA | -1.73 ± 0.15 | 0.464 ± 0.17 |
| CUAGAGCAAUAUUACGUGGG | -0.857 ± 0.13 | -0.906 ± 0.16 |
| GACCAGCAAUAUUACGAAGA | -1.44 ± 0.14 | -0.589 ± 0.12 |
| CUCAAGCAAUAUUACGUCCA | -2.66 ± 0.32 | -1.51 ± 0.27 |
| AAUAAGCAAUAUUACGAGCA | -1.37 ± 0.2 | -0.258 ± 0.2 |
| UGCAAGCAAUAUUACGUAUC | -3.22 ± 0.2 | -1.14 ± 0.15 |
| UAGCAGCAAUAUUACGAGGG | -1.97 ± 0.21 | -1.96 ± 0.27 |
| CUCAAGCAAUAUUACGUACG | -1.02 ± 0.065 | -0.705 ± 0.088 |
| AGCAAGCAAUAUUACGAAUA | -2.74 ± 0.26 | -0.872 ± 0.16 |
| AAACAGCAAUAUUACGAACC | -2.56 ± 0.18 | -0.124 ± 0.17 |
| UUUGAGCAAUAUUACGAUAG | -2.09 ± 0.19 | -1.87 ± 0.23 |
| CGGGAGCAAUAUUACGCAGA | -3.67 ± 0.48 | -2.01 ± 0.29 |
| UCCUAGCAAUAUUACGCUCC | -3.73 ± 0.33 | -0.747 ± 0.24 |
| GGCCAGCAAUAUUACGAACU | -0.359 ± 0.07 | -0.12 ± 0.079 |
| ACUCAGCAAUAUUACGAUAA | -1.25 ± 0.078 | -0.67 ± 0.097 |
| GUCAAGCAAUAUUACGAGAU | -5.3 ± 0.38 | -3.28 ± 0.2 |
| CUGGAGCAAUAUUACGGACG | -1.4 ± 0.11 | -0.808 ± 0.11 |
| UGUCAGCAAUAUUACGUUGU | -4.25 ± 0.27 | -2.3 ± 0.16 |
| GAAUAGCAAUAUUACGAAGA | -2.78 ± 0.33 | -1.45 ± 0.25 |
| GCAGAGCAAUAUUACGGAAG | -2.98 ± 0.28 | -1.65 ± 0.18 |
| CGGCAGCAAUAUUACGUACA | -1.26 ± 0.11 | -0.624 ± 0.14 |
| AACUAGCAAUAUUACGCUGG | -3.28 ± 0.4 | -2.34 ± 0.22 |
| GUUAAGCAAUAUUACGGGCG | -1.44 ± 0.1 | -0.388 ± 0.11 |
